Measurements published in patent US20120271036A1 (UNIVERSITY OF ROCHESTER, published 2012).

B1: BC: EloB (1-118) / EloC (17-112) heterodimer (other)
chain 1: MGDVFLMIRRHKTTIFTDAKESSTVFELKRIVEGILKRPPDEQRLYKDDQLLDDGKTLGECGFTSQTARPQAPATVGLAFRADDTFEALCIEPFSSPPELPDVMKPQDSGSSANEQAVQENLYFQ
chain 2: MGYVKLISSDGHEFIVKREHALTSGTIKAMLSGPGQFAENETNEVNFREIPSHVLSKVCMYFTYKVRYTNSSTEIPEFPIAPEIALELLMAANFLDC
notes: also called EloBC; EloBC heterodimer
B2: Cul5(N), human Cullin5 residues 2-384 (V341R, L345D) after removal of GST (other)
chain: GPMHMGGSTSNLLKNKGSLQFEDKWDFMRPIVLKLLRQESVTKQQWFDLFSDVHAVCLWDDKGPAKIHQALKEDILEFIKQAQARVLSHQDDTALLKAYIVEWRKFFTQCDILPKPFCQLEITLMGKQGSNKKSNVEDSIVRKLMLDTWNESIFSNIKNRLQDSAMKLVHAERLGEAFDSQLVIGVRESYVNLCSNPEDKLQIYRDNFEKAYLDSTERFYRTQAPSYLQQNGVQNYMKYADAKLKEEEKRALRYLETRRECNSVEALMECCVNALVTSFKETILAECQGMIKRNETEKLHLMFSLMDKVPNGIEPMLKDLEEHIISAGLADMVAAAETITTDSEKYREQLDTLFNRFSKLVKEAFQDDPRFLTARDKAYKAVVNDATIFK
notes: also called untagged Cul5(N)

Columns and labels:
[1] = target: the molecule itself; assay: sedimentation velocity AUC; self-association
[2] = target: T1, BCvifVF: EloB (1-118) / EloC (17-112) / vif (95-192) (A123V, L124F) (human; HIV-1 HXB2, UniProt P69723 95-192); assay: ITC, 30 C; A123V/L124F mutant
T1 construct: range 95-192

[3] = target: T2, BCvif95-192: EloB (1-118) / EloC (17-112) / Vif (95-192) (human; HIV-1 HXB2, UniProt P69723 95-192)
[4] = target: T2, BCvif95-192: EloB (1-118) / EloC …; assay: ITC, 30 C; Cul5(N) titrated into the complex
[5] = target: B1; assay: ITC, 30 C; untagged Cul5(N) titrated into EloBC
[6] = target: T2, BCvif95-192: EloB (1-118) / EloC …; assay: ITC, opposite injection order; BCvif95-192 titrated into Cul5(N)
[7] = target: T3, EloB(1-118)/EloC(17-112)/Vif(95-173) (human; HIV-1 (group M, subtype B), UniProt Q15370 2-118; Q15369 18-112; P31820 95-173)
[8] = target: T4, EloB(1-104)/EloC(17-112)/Vif(102-173) (human; HIV-1 (group M, subtype B), UniProt Q15370 2-104; Q15369 18-112; P31820 102-173)
[9] = target: T5, BCvif95-160: EloB (1-118) / EloC (17-112) / Vif (95-160) (human; HIV-1 HXB2, UniProt P69723 95-160)
[10] = target: B1
[11] = target: T1, BCvifVF: EloB (1-118) / EloC (17-112) / …
[12] = target: T6, BCvifSS: EloB (1-118) / EloC (17-112) / vif (95-192) (A123S, L124S) (human; HIV-1 HXB2, UniProt P69723 95-192)
[13] = target: T3, EloB(1-118)/EloC(17-112)/Vif(95-173); assay: ITC, 30 C
[14] = target: T4, EloB(1-104)/EloC(17-112)/Vif(102-173); assay: ITC, 30 C
[15] = target: T5, BCvif95-160: EloB (1-118) / EloC …; assay: ITC, 30 C
[16] = target: T7, BCvif95-155: EloB (1-118) / EloC (17-112) / Vif (95-155) (human; HIV-1 HXB2, UniProt P69723 95-155); assay: ITC, 30 C
T7 construct: range 95-155

[17] = target: T6, BCvifSS: EloB (1-118) / EloC (17-112) / …; assay: ITC, 30 C; A123S/L124S mutant

## B1
[1]
  binding result: no binding (tested: 0.19, 0.37, and 1.88 mg ml^-1)

## B2
[2]
  Kd: 0.847 µM
[3]
  ΔH: -5210
  ΔS: 12.6
[4]
  Kd: 0.327 µM
[5]
  Kd: 6.35 µM
[6]
  Kd: 0.42 µM
[7]
  N: 0.869
  ΔH: -5630
  ΔS: 11.1
[8]
  N: 0.826
  ΔH: -4950
  ΔS: 13.6
[9]
  ΔH: -5090
  ΔS: 13
[10]
  N: 0.924
  ΔH: -9200
  ΔS: -6.39
[11]
  ΔH: -4550
  ΔS: 13.1
[12]
  ΔH: -7380
  ΔS: 4.97
[13]
  Kd: 0.337 µM
[14]
  Kd: 0.288 µM
[15]
  Kd: 0.285 µM
[16]
  Kd: 0.213 µM
[17]
  Kd: 0.397 µM
